Entries after “also recorded” stand apart in the source; their conditions may differ.

These results are taken from patent publication US20250320480A1, “Immunoglobulin Cleaving Enzyme” (priority 2021, published 2025).

Common to all, as to format: biochemical
In data set [1] the test system is human IgG1 hinge/CH2 region. The data set is described as follows: Site of hydrolysis by IdeSORK2.0, LC-MS. The following applies: IgG1, IgG2, fusion proteins, LALA-mutated IgG. The procedure: FIG. 5. IdeSork2.0 hydrolyses the hinge of IgG at an identical site as IdeS. Commercial and non-commercial biologics were hydrolyzed with IdeSork2.0 and hydrolysis products were analyzed using LC-MS.
Several substrates (IgG1, IgG2, fusion proteins, LALA-mutated IgG) were subjected to hydrolysis by IdeSORK2.0 and the site of hydrolysis identified through LC-MS. […] This is the same site that is recognized by IdeS. The site of hydrolysis has been confirmed for etanercept, trastuzumab, cetuximab, as well as two non-commercial monoclonal antibodies.
Subunit fragments were denatured and reduced followed by reversed phase LC-MS analysis. Separation was achieved using a BioResolve RP mAb Polyphenol, 450 Å, 2.7 μm 2.1×100 mm, Waters (0.1% formic acid in water and 0.1% formic acid in 95% acetonitrile as mobile phases) and run on an Agilent 1260/1290 UHPLC system coupled to a Bruker Impact II QTOF mass spectrometer. The obtained data was evaluated in Bruker Compass DataAnalysis software using the MaxEnt algorithm for deconvolution and SNAP algorithm for determination of the monoisotopic molecular weights.

For the next data set, the system named is pig IgG. The data set can be described thus: Immunoglobulin specificity on SDS-PAGE: pig IgG. The following applies: o/n at 37° C. As for the experimental part: FIG. 11. Specificity of IdeSork2.0. IdeSork2.0 was mixed with different antibodies and incubated o/n at 37° C. before analysis on SDS-PAGE.
Various antibodies and antibody based therapeutics were incubated with Xork, IdeS, or IdeZ (1:40 ratio) for 1 hour at 37° C. in PBS, with substrate concentrations ranging between 2-5 mg/mL, before being analyzed on SDS-PAGE. For kinetic studies, a substrate level of 2-200 μM IVIG was used during 10 min at 37° C. before being analyzed on a UHPLC system.

The subject of the next data set is IgG in human serum. The data set can be described thus: Activity of IgG hydrolases in human serum. The following applies: serum (100%), E:S 1:40, 0-4 hours at 37° C., non-reduced SDS-PAGE. As for the experimental part:
FIG. 15. Activity of IgG hydrolases in human serum. Serum (100%) was spiked with IgG hydrolases and activity was analyzed over time using non-reduced SDS-PAGE.
For serum activity assays, an E: S ratio of 1:40 (assuming 10 mg/mL IgG in serum) was used, incubating 0-4 hours at 37° C. before analysis on a non-reduced SDS-PAGE. All enzymes were supplied by Genovis AB.

The next data set deals with casein. The data set is described as follows: General protease activity, EnzChek protease assay. The following applies: casein substrate, FabULOUS 5 μg, FabRICATOR 10 μg, IdeSORK2.0 10 μg. As for the experimental part: FIG. 2. General protease activity. General protease activity was measured with the EnzCHECK protease assay, using casein as a substrate.
General protease activity was determined using the EnzChek Protease Assay kit, according to manufacturer's instructions. As a positive control the general protease FabULOUS (SpeB, 5 μg) was used, and as a negative control the IgG-specific protease FabRICATOR (IdeS, 10 μg). IdeSORK2.0 was added to a total quantity of 10 μg.

A further data set deals with IgG. The data set can be described thus: Optimal conditions, Box-Behnken design (pH, NaCl, temperature). The procedure: FIG. 7. IdeSork2.0 optimal conditions. The optimal buffer composition for IdeSork2.0 was determined using a Box-Behnken experimental design, measuring the impact of pH, NaCl and temperature. Output was measures as percentage hydrolysis of IgG.
The optimal conditions for IdeSORK2.0 were assessed using a Box-Behnken experimental design to assess multiple factors and their inter-dependence. […] The enzymatic reaction is mainly driven by the substrate concentration (high concentration favours the reaction), while the enzyme concentration is secondary. This can also be seen as a low percentage IgG not being readily hydrolyzed even after a pro-longed incubation (FIG. 9).
To better understand the optimal conditions needed for the enzyme to exert its activity, a Box-Behnken design was employed for the experiment. Addition of NaCl (0-400 mM), pH (5.5-8.5), [enzyme], [substrate], time, and temperature were parameters investigated. Unless otherwise noted, all experiments were conducted in TBS at an enzyme: substrate ratio of 1:20, for 1 hour at 37° C.

B1: IdeSORK2.0: SEQ ID NO: 2 (N terminal 312 amino acids of IdeSORK) with added N terminal methionine and C-terminal His6; 319 amino acids (protein)
chain: MSKRKLLKKIEKKDTSSVLTQKKQTKTLWADGVQVDDKDFKPSTENFGTNYLAAEYGIGKGYYDINKKFDGTDDDLCSGVVAANQLHWWLDRNKDYIEKYRQQSKDNGVTIGNTDIFELNKLHDEDQSNFFDFIKKSFGNKFLQPERLLNMYINGYGYLTSQDKAKTSQPSPSKLNFFQKVFKNNLLTDKTPINDIDEFSSQTKNALQNHKVLAVSFASIKNRGLGHVVTVWGADFDENGKVVALYVTDSDDRSKNIGNAKLGMKKLRIEVSAQDSSTIKLTGFEDKNSGGSLRHLYSLSTGEQIWKKYFEETHHHHHH
modifications: (IdeSORK2.0) Protein of SEQ ID NO 2 engineered to include an additional N terminal methionine and a C-terminal protein purification tag - His6
As to B1, the “Number and position of hydrolytic sites” value in data set [1] was “only a single hydrolytic site was detected”. Moreover, the “Number and position of hydrolytic sites” value in data set [1] (listed as IdeSork2.0) was “only observed at a single site in the hinge region”. For the same molecule, in the data set with pig IgG, the “Activity on pig (porcine) IgG” value was “only showed activity against horse and guinea pig IgG; also recorded: no visible effect”. Also, in the data set with IgG in human serum, the “Immunoglobulin cleavage activity in the presence of human serum” value is “demonstrated immunoglobulin cleavage activity”. Besides, the “General protease activity (signal)” value with casein was “no signs of general protease activity”. Besides, the “General protease activity (signal)” value in the data set on casein (listed as IdeSork 2.0) is recorded as “did not give any measurable signal”. Further, in the data set on IgG, the NaCl optimum turned out to be 0 mM, the “NaCl tolerated without a significant drop in activity” value is “up to 200 mM”, the “Requirement for co-factors or reducing agents” value was “no requirement for co-factors or reducing agents” and the “pH in which highly active” value is 7.0-8.5. For the same molecule, the pH optimum with IgG was 7.5. Further, the “Effect of temperature on activity” value in the data set on IgG (37° C. versus room temperature) is “improved when incubated at 37 °C as compared to room temperature”. Also, in the data set on IgG (>90% activity), the NaCl range was in the range of 0 to 200 mM and the pH range is reported as 6.5-8.5.
